Reference: PMC3458707 (Chemistry & biology, 2012)
Read-outs that look alike come from different tables or passages of the source.

Key:
Assay in all cases: native MS
[1] = target: T1, pig heart citrate synthase (pig, UniProt P00889 28-464)
T1 sequence (looked up): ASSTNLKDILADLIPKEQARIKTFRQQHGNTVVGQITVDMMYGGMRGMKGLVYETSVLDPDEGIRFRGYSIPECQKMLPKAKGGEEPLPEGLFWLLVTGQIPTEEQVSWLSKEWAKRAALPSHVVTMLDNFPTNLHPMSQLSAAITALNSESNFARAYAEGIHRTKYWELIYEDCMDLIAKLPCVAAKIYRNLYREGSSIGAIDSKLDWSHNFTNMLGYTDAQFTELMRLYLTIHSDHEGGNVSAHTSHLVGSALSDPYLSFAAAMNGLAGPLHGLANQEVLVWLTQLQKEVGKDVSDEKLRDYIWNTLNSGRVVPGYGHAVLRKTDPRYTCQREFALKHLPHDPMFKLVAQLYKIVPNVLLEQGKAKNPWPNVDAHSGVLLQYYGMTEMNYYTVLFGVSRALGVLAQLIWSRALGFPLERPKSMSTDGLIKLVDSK

[2] = target: T2, mitochondrial pig heart malate dehydrogenase (pig, UniProt P00346 25-338)
T2 sequence (looked up): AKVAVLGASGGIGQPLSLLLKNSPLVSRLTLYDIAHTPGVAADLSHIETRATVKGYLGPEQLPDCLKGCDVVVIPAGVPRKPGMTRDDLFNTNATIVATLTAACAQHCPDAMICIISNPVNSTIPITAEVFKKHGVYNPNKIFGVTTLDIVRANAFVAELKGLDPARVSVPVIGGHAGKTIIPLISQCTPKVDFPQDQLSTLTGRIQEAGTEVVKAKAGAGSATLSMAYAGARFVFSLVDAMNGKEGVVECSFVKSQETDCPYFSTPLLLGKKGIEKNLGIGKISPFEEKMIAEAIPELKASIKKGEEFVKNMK

[3] = target: T3, Recombinant firefly luciferase (firefly, UniProt P08659 1-550 = luciferase)
T3 sequence (P08659 whole entry): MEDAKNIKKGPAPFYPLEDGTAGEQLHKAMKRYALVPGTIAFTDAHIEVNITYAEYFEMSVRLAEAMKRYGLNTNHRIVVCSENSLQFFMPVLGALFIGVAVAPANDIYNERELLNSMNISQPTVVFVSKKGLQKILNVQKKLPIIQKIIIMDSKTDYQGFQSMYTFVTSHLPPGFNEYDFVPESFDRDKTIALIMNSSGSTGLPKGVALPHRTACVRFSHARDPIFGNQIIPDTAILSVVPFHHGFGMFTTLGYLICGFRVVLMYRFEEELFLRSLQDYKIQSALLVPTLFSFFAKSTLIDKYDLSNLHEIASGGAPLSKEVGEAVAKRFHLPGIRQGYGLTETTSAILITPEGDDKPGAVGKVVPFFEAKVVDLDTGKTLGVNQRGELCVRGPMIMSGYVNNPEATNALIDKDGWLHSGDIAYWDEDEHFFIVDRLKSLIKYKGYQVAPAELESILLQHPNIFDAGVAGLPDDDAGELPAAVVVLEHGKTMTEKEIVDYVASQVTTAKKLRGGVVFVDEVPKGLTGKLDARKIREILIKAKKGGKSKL

[4] = target: T3, Recombinant firefly luciferase; remark: listed apart in the source
[5] = target: T1, pig heart citrate synthase; remark: listed apart in the source
[6] = target: T2, mitochondrial pig heart malate …; remark: listed apart in the source
[7] = target: T3, Recombinant firefly luciferase; remark: listed apart in the source

ratio of complexes [Target]1:[Target]2 [1]: 2.9 [Target]2 per [Target]1
ratio of complexes [Target]1:[Target]2 [2]: 1.6 [Target]2 per [Target]1
ratio of complexes [Target]1:[Target]2 [3]: 1.1 [Target]2 per [Target]1
stoichiometry N [4]: 19.4 ± 0.4 subunits of HSP18.1 per Luc
ratio of complexes [Target]1:[Target]2 [5]: 2 [Target]2 per [Target]1
ratio of complexes [Target]1:[Target]2 [6]: 1.9 [Target]2 per [Target]1
ratio of complexes [Target]1:[Target]2 [7]: 2.2 [Target]1 per [Target]2
B1: HSP18.1 from Pisum sativum (pea) (natural protein, UniProt P19243 1-158, looked up)
chain: MSLIPSFFSGRRSNVFDPFSLDVWDPLKDFPFSNSSPSASFPRENPAFVSTRVDWKETPEAHVFKADLPGLKKEEVKVEVEDDRVLQISGERSVEKEDKNDEWHRVERSSGKFLRRFRLPENAKMDKVKASMENGVLTVTVPKEEIKKAEVKSIEISG
